{"source": "patent US20100226910", "proteins": {"B1": {"name": "Tissue kallikrein (SEQ ID NO:1) (protein)", "chain": "IIGGRECEKDSHPWQVAIYHYSSFQCGGVLVDPKWVLTAAHCKNDNYQVWLGRHNLFENEVTAQFFGVTADFPHPGFNLSLLKNHTKADGKDYSHDLMLLRLQSPAKITDAVKVLELPTQEPELGSTCQASGWGSIEPGPDDFEFPDEIQCVELTLLQNTFCADAHPDKVTESMLCAGYLPGGKDTCMGDSGGPLICNGMWQGITSWGHTPCGSANKPSIYTKLIFYLDWINDTITENP"}}, "target": "Amyloid beta1-42 standard (from β-Amyloid1-42 ELISA, Human kit, Sigma BE0200), P05067", "sequence (P05067 whole entry, looked up, tested part not stated)": "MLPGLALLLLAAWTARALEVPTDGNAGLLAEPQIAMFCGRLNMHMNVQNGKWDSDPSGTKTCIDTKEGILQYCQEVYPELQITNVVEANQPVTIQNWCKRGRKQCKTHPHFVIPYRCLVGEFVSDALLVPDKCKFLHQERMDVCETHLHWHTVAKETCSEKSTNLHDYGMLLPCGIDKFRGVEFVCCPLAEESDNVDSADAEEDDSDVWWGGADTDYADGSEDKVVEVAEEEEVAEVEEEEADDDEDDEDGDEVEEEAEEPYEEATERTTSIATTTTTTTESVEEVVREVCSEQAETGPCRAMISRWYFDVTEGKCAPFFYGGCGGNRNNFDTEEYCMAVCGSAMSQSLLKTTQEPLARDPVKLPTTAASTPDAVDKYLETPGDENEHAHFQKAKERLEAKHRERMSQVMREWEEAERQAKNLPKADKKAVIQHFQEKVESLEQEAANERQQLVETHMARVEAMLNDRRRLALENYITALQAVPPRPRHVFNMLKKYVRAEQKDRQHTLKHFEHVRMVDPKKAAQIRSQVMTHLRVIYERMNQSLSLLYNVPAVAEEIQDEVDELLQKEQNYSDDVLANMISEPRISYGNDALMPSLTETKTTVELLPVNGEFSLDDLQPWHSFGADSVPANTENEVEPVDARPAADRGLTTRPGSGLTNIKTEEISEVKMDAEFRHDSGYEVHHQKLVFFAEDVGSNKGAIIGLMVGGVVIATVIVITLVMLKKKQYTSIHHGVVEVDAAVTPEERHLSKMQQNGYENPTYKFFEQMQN", "data": [{"protein": "B1", "values": [{"measurement": "% Cleavage (ELISA of remaining Aβ1-42), KLK1 1 pg/mL, 3 hrs", "result": 0, "unit": "%"}, {"measurement": "% Cleavage (ELISA of remaining Aβ1-42), KLK1 1 pg/mL, 18 hrs", "result": 0, "unit": "%"}, {"measurement": "% Cleavage (ELISA of remaining Aβ1-42), KLK1 10 pg/mL, 3 hrs", "result": 0, "unit": "%"}, {"measurement": "% Cleavage (ELISA of remaining Aβ1-42), KLK1 10 pg/mL, 18 hrs", "result": 15, "unit": "%"}, {"measurement": "% Cleavage (ELISA of remaining Aβ1-42), KLK1 100 pg/mL, 3 hrs", "result": 0, "unit": "%"}, {"measurement": "% Cleavage (ELISA of remaining Aβ1-42), KLK1 100 pg/mL, 18 hrs", "result": 19.5, "unit": "%"}, {"measurement": "% Cleavage (ELISA of remaining Aβ1-42), KLK1 1 ng/mL, 3 hrs", "result": 19.6, "unit": "%"}, {"measurement": "% Cleavage (ELISA of remaining Aβ1-42), KLK1 1 ng/mL, 18 hrs", "result": 50, "unit": "%"}, {"measurement": "% Cleavage (ELISA of remaining Aβ1-42), KLK1 10 ng/mL, 3 hrs", "result": 36.6, "unit": "%"}, {"measurement": "% Cleavage (ELISA of remaining Aβ1-42), KLK1 10 ng/mL, 18 hrs", "result": 88.4, "unit": "%"}, {"measurement": "% Cleavage (ELISA of remaining Aβ1-42), KLK1 100 ng/mL, 3 hrs", "result": 71.7, "unit": "%"}, {"measurement": "% Cleavage (ELISA of remaining Aβ1-42), KLK1 100 ng/mL, 18 hrs", "result": 99.8, "unit": "%"}, {"measurement": "% Cleavage (ELISA of remaining Aβ1-42), KLK1 1 µg/mL, 3 hrs", "result": 92.1, "unit": "%"}, {"measurement": "% Cleavage (ELISA of remaining Aβ1-42), KLK1 1 µg/mL, 18 hrs", "result": 100, "unit": "%"}]}]}
